{"source": "paper PMC3471233", "biological_target": "GFP-CLASP2 S1234A mutant (human)", "test": "co-IP", "data": [{"substance": "Polo-like kinase 1 (Plk1), endogenous (from UniProt P53350 1-603) (natural protein)", "values": [{"measurement": "reduction of co-immunoprecipitated Plk1 relative to wild type", "value": 40, "unit": "%"}]}]}
